The record followed here is a protein production outcome set (Wang et al. 2014).

This data set can be described thus: label from the status in PepcDB records.
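Note: failed if final PepcDB status was selected cloned or expressed and not failed if soluble or beyond.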

In the case of “MTPPPAPKTPSTLLRRHLGRAVGAAYLAAATAPGPGMWLRHPHRIAVVGLPDLSLNTAPFLLSLVLFTAGLQVPPRDLGRLVGRPAALLTGLALHLLAPLLIVPGVAFALRQSPDSDGGSGLVAAMILVVAMPVAAGATVWTGAGEGDQSTTVGLVLASTLASPLTVPFTVTALCPLLSADYADTLAGAARIAGSGFALTGVVLPCAAGLVARLALPRRALDALLHAAVPTAALGSLLLTYVNASGVLGPFLTRPRPVLLAAALAVAATVCGLSFALGRITARVLRLDAHAGASVTLACGMNNSSASAVLITTALPDRPQVLLPVLAYGLLQKVAAGRVVRGGHHSGRGA”, the protein production entry is “failed”.
The result for “MTPQSDTPKVTGLKLKRKSRQLEISFDNGQQFTLSCELLRVYSPSAEVHGHGNPVLVTHKKNVNINAITPVGNYAVKLVFDDGHDTGLYSWKVLYDLASNQVDLWENYLARLRAAKASREPLIDMAVKYHT” reads “not failed”.
The result for “MTPSISLITSYSLLPAILMLIGGGIASLYRPGGSITSATQHFAAGVVFAAVAKELLPKIGAYHDPLALIIGFSVGILAMLFLKWLANRLEDLEQEKTGLSWGLLTAVGIDLLIDGILIGVAFLAGERGGILIAIALAIEIFFLGLSTTATLGARQVNVPIRLLTSVILAILIPVGAALGASLLIHLPLSITNGILSFGVAALLYLVTEELLLEAHGVRETPYITLCFFIGFLLILLLEGLAA” reads “failed”.
“MTPTPLHSITPFSMLDFPSMLSCILWFSGCNLACSYCYNPEFLKESGKIDLEGLLSFLRSRVGLLEGVVFSGGEATLFAGLPLWMEEVRSLGFKIKLDTNGTNPAMLKELLQKGYLDYVAMDFKGKEERFGMITGREFYGRFLESLEILLSSSIPFEIRTTVHSYLLQEEDIAEMAALLKERGYKGAFYLQHFVGEKETLKPLPESRRLKLDEEAIETKIIWR”: the protein production result is recorded as “failed”.
The result for “MTPVQIAAVVVTYESSSTIDACLSRLRAAEGISEIRVVDNASSDDTLEVVQRHALADARLHFIANPDNPGFATACNQGARDSQAPWLVFINPDLMIARDTLLQLYHRAAGHPAVLLGVEQVDEQGRPDAAVRRRDPDFAAMLRAPRAAANLAVPADPSRALQPVDAISGALMLMQRSLFDRLDGWDGSYRLHAEDLDLCRRARQAGALVAVANDLHVLHVRGVSSRARPFFVEWHKHRGLWRYFRKFEADRRGLLTRLGVWLAIWSHAAAQVPRLLQNKLEHHHHHH” reads “failed”; that for “MTQANLSETLFKPRFKHPETSTLVRRFSHGAQPPVQSALDGKTIPHWYRMINRLMWIWRGIDPREILDVQARIVMSDAERTDDDLYDTVIGYRGGNWIYEWATQAMVWQQKACAEEDPQLSGRHWLHAATLYNIAAYPHLKGDDLAEQAQALSNRAYEEAAQRLPGTMRQMEFTVPGGAPITGFLHMPKGDGPFPTVLMCGGLDAMQTDYYSLYERYFAPRGIAMLTIDMPSVGFSSKWKLTQDSSLLHQHVLKALPNVPWVDHTRVAAFGFRFGANVAVRLAYLESPRLKVVACLGPVVHTLLSDFKCQQQVPEMYLDVLASRLGMHDASDEALRVELNRYSLKVQGLLGRRCPTPMLSGYWKNDPFSPEEDSRLITSSSADGKLLEIPFNPVYRNFDKGLQEITDWIEKRLC”, “failed”; that for “MTQDASPILTSLLDTDAYKLHMQQAVFHHYRHITVAAEFRCRSDELLGVYADEIRHQVTLMGQLALTSDEFIYLSSLPFFQDDYLHWLRDFRFKPEQVSVAVHDGKLDIRIAGLWCEVIMWEVPLLAVISEIVHRRRSTQVTTDQAVQQLRTKLEQFNALSADIDITHFKLMDFGTRRRFSREIQHTVVSTLKDEFPYLVGTSNYDLARTLALAPVGTQAHEWFQAHQQISPTLANSQRVALQVWLDEYPNQLGIALTDCITMDAFLRDFDLAFANRYQGLRHDSGDPIEWGEKAIAHYEKLGIDPMKKVLVFSDNLDLEKALFLYRHFYQRIKLVFGIGTRLTCDIPDVKPLNIVIKLVECNDKPVAKLSDSPGKTICQDPAFVDQLRKAFALPLVKKAS”, “not failed”.
The result for “MTQDELLVLIEQAATEGWRELDLSGQELTELPGEIGKLQQLESLILGKQVGGYEKVGYRIFQKALGNNLKTLPIELLSLPNLRKLDISGNPLEGIPDVVMQILHLEELILIRVQLTEIPEALAKLTNLTQLILSDNQITEIPEALAKLTNLTQLNLSYNQITEIPEALAKLTNLTQLNLSYNQITEIPEALAKLTNLTQLNLRGNQRTEIPEALAKLTNLTRLNLSYNQRTEIPEALAKLTNLTQLILSDNQIKEIPETIAKLTNLTHLILSGNQIKEIPETIAKLTNLTQLGLDGNQIKEIPEAIAKLTNLTQLGLDGNQIKEIPEAITKLTNLTHLILSGNQIKEIPETIAKLTNLTQLALSSNQITEIPEVLAQLTNLTQLFLSSNQITQIPEALAPLTNLTTLHLRVNQITQIPEAIESLPKLELLDLRGNPLPISPEILGSVYQVGSVEEIFNYLRLLRSGEVRPLNEAKLLLVGQGSVGKTSLIERLIHNKYDRNQPQTDGLKVETWNVQVNSKDIRLNVWDFGGQEIYHATHQFFLTKRSLYLLVCNCRTSEEENRIEYWLKLIESFGGQSPVIIVGNKKDEQPLDINRKALREKYPNIQAIIETSCQDNIGIDELRTAILQQVGNLKEVYDLLPLSWFEVKQQLESMSQDFITYSSYIGICYENKIPEEHNQEQLIDLLHRLGLVLNFREHPILRDTNVLKPNWVTEGIYALLSDENLKTKSKGIFTPADLTRVLNPERYPTKRHGYLIELMKEFELGFELACYPPQFLIAGLLPKDQPDATELEGETLEFQYHYKVLPESIISRFIVNTHERIHNQIYWRSGVMLQYQQHNEIYNIARIKADPEDKKIFIAISGRKETRRSFLAILRDVFQKIHKSLANLEITEWVPVPGYPNHPPLDYQELLGLETMGILEYPIGKLKININIRQLLDGYESLESRRKLQKGDHDLDDRTAYEDILDIAKLAVSRPIITKAEAKAVSENPQFTNNLQGANIANFANEVKDNASQQASNFNQTSGANIAEIMQLINNLRQTVAQFPPEIRDDIIIDIDDVEVEIQKPEKERNTPKLKKRLAALLTAASVAAAPIASVVDFTNNVMELGSKLGIELIQPSP” reads “failed”.
As for “MTQDEQICSLALTRIPGLGPTGAFRLVSSLGSATRVFEHRKELSQLVPGVSEKIITALNNSEAFRRAEQELTFCEKNHIRCLTLNDEGYPGRLRECDDAPLALFYRGNADLNALHVINMVGTRHATPYGQDICTRFLADLSVLCPNALIVSGLAYGIDIHAHRAALQNHFKTIGVLAHGLDRIYPAEHRKTAVSMLEQGGLLTEFTSGTNPDRQNFVKRNRIVAGMSDATVVIESAAKGGALITAELAESYHRDCFAFPGRCNDEYSIGCNNLIRKNQAVLITSAEDLVKAMGWESSPKTEKTVQRELFPDLSEEEERIVKRLGKMSEGLQINTLVIDTNIPVNRMSALLFELEMKGVIRALAGGVYRLIM”, the protein production result is recorded as “not failed”.
As for “MTQDGTNILILGSDQRVTQGSTDARTDTIMVVNVGNHAKKIKMVSFMRDTLINIPGYSYNDNSYDLKLNSAFNLGEQEDHHGAEYVRRALKHNFDIDIKYYVMVDFETFAEAIDTLFPNGVKIDAKFATVGGVAVDSVEVPDDLRMKNGVVPNQTIEVGEQRMDGRTLLNYARFRKDDEGDFGRTVRQQQVMSAVMSQIKDPTKLFTGSAAIGKIYALTSTNVSFPFVVKNGVSVLGSGKNGVEHVTIPENGDWVDEYDMYGGQALYIDFDKYQKTLAKLGLRLEHHHHHH”, the entry is “not failed”.
As for “MTQHQTLPQTTEGAYHYQVIRRAIELIDQTDQPISLDEIAANMGMSPAHFQRVFSRWVGVLEHHHHHH”, the entry is “not failed”; as for “MTQKEISIIHPRPSSIVAALYTLRDLNVDVAILHGPPGCSFKHARLLEEDGIHVVTTGLDENGFVFGGHDKLVQVINKSIELFNPKILGVVGTCASMIIGEEMHEAVLEANPDIPVIEVEVHAGYHNNTKGVIFALESALDAGIIDHKEFERQEYLLQKATEVEKKFGAASKEYLAPSRGDVKYKVAKRLVELLKEGKKGLVIMNAKKETGYMFADITLAVNEVAEALGKKENLVNMANIDPELGLPRVRQHAEYIMRDFKAHGVEIHEIIGGMDEYPVAGEKVSELIKEKYSDYDFAVITGVPHAVPMENIGHMELISITNGPRQVLPLKEMGHEHVMVEIDLHPKTLGVSQIVESEFGATLREVAKEA”, “failed”; as for “MTQKFGLSAALTTPFKTDGTVDIDAMIAHARRCLSNGCDSVTLFGTTGEGCSVGSRERQAILSSFIAAGIAPSRIVTGVLVDSIEDAADQSAEALNAGARNILLAPPSYFKNVSDDGLFAWFSAVFSKIGKDARDILVYNIPSVTMVTLSVELVGRLKAAFPGIVTGVKDSSGNWSHTERLLKEHGDLAILIGDERDLARGVRLGGQGAISGVANFLTQEVRAMAVDGKDDPRIVDLVVELLKFPVTPAVKVLVSHTTGETIWSDVRAPLVAISPEDRRQIEGAFDALFRRQAA”, “not failed”.
The result for “MTQKTGALIFDETADRYDIRFDLNDYYGGLHCGDCLEVFVRGKWKPTRMEYGDNWYLVGVRASDLNGLRVRILEHHHHHH” reads “failed”; that for “MTQPEETPVSFIPSNFIEKGKILNGTFDIRNAIESIVLSLAIGIPVFHLPLSLTARIIILCMTALPAAMVALIGIGGESITAFLMNALRFVVNRRVIWRSDSLPEGKPRRKPRFKEPKTKKHRKAEKMAEPSKVMASAPPQSEPDAPAPPKSKKKEHRQFDTSTKRGIKKQAKEDIRYLKWEQKEASRQKKEAAKQIKIQKKTEARRRKEEEKRAVSEKRAAKKEQKKKVVSKEDTSSATSKPVSRKKRKKDQTLEDYLPVEKIANGIVYTTDGRYVKILEIEPINFLLRSAREQQGIIYSFISYLKISPVKLQIKMISKKADINKHLEQSQLELERETDPHCQELQRDYIQFVQNLSSREAVSRRFFLIFEYEPFNANRKEEEREILAALETASQTAKTFLYQCGNEVVSHDNEDEFTTDVLYTLLNRTLCTEVPLSNRISTVLSAYTKENRMEELDHIRINEFLAPESVDFKHSHYVQINGLYHSYLLVPSDGYKNRVTPGWLSLLVNAGEGIDIDFFLQKQPKDKIQQRLGQQIRINRSKLKDASDTNTDYDDLDSAIRSGYFLKQGLANNEDFYYMNLLITITASTLEELQWRIQEMKKLLISQDMNLHSCYFLQEQGFLSSLPLANLDKKLFKLSKRNVLTSGAASCYPFVSYSICDDNGILFGVNKHNNSLVIADIFDSRQYKNSNICILGCSGAGKTFTMQTMALRMRRKGIQVFIIAPLKGHEFYRAARNVGGEFIQISPASKNCINIMEIRKVDNSVNELLDGPTLDASALAGKIQRLHIFFSLLIPDMSHEEKQLLDEALIKTYARKGITHKNESLTDPQHPEQYKKMPILEDVYNVLLESEDTKRLAHILNRLVHGSASSFNQQTNVDLTNKYTVLDISELTGSSDLLTVGMFVALDYVWDKAKENRTEEKAIFVDEVWQLIGASSNRLAAEFVLEIAKIIRAYSGAGIFATQDLNDFFALDDGKYGKGIINNCKTKIILNMEDEEAQRVKTILHLSETEVMNITHFQRGNGLISTNNNNITVEFKASNLEKELITTERQELLEILAKQKKQAV”, “failed”.
“MTQQDFRTKVDNTVFGVRATALIVQNHKLLVTKDKGKYYTIGGAIQVNESTEDAVVREVKEELGVKAQAGQLAFVVENRFEVDGVSYHNIEFHYLVDLLEDAPLTMQEDEKRQPCEWIDLDKLQNIQLVPVFLKTALPDWEGQLRHIHLEE”: the protein production entry was “not failed”.
The result for “MTQSQTNDGAGAGAVTTVESVPPQPQSQPQPQPQQQSNEMVLHTGSLSFSSHMSREDEEMTRSALSAFRAKEDEIEKRRMEVRERIQAQLGRVEQETKRLSTIREELESMADPRIWPSELESMADPMRKEVSVVRKKIDSVNKELKPLGSTVQKKAEQNSIFGNEMKQEREYKEALDTFNEKNREKVQLITKLMEMEQLVGESEKLRMIKLEELSKSIETV” reads “not failed”.
As for “MTRADCRSRLMEVATELFAQKGFYGVSIRELAQAAGASISMISYHFGGKEGLYAAVLQEQFACFGQLDDIRGQAGDPLAVMTAYLRWTIQRHRNNPQLLRFYTSELTNPTPCFAAIVSPAIASVIRLLAESIEAGMTRGLFRRDLHAVNSALALAGMVNYFFLSTLATEGLTSHSPDQDEELIRQYVAIFTRGIMADGGAAPA”, the entry is “not failed”.
